Laboratory results published in patent publication US20120277286A1, “COMPOSITIONS AND METHODS FOR THE TREATMENT OR PREVENTION OF MITOCHONDRIAL DISEASES” (The Government of the USA, as represented by the Secretary, …, priority 2009, published 2012).

How the values were obtained:
[1] = tested on: M17 human neuroblastoma cells; experiment: YFP-Parkin recruitment to mitochondria in M17 cells; format: cell-based; settings: M17 cells stably transduced with control shRNA (CCCP line) or PINK1 shRNA, 10 μM CCCP, 3 hours
Excerpt: (§1) HeLa YFP-Parkin, PINK1+/+ SV40 transformed MEFs cells, PINK1−/− SV40 transformed MEF, M17 neuroblastoma control shRNA, M17 neuroblastoma PINK1, and Mfn1/2−/− MEF cell lines have been described previously (Narendra (2008) J Cell Biol 183: 795-803). PINK1+/+ and PINK1−/− primary MEFs were isolated from embryos using a standard protocol (Gautier (2008) Proc Natl Acad Sci USA 105: 11364-11369). Parkin+/+ and Parkin−/− transformed MEFs were created by isolation of primary cells from embryos of B6.129S4-Park2tm1Shn/J mice (Jackson Labs), using a standard protocol (Gautier (2008) Proc Natl Acad Sci USA 105: 11364-11369), followed by retroviral transduction of SV40 (Applied Biological Materials, Inc.). YFP-Parkin, YFPParkin mutants, mCherry-Parkin, PINK1-YFP, PINK1 KD-YFP, PINK1 Δ1-110-YFP, and Opa3-PINK1 Δ1-110-YFP are in C1 or N1 Clontech vectors. PINK1WT-V5, PINK1 KD-V5, and PINK1 Δ1-156-V5 are in pDest40 vector (Invitrogen). PINK1 patient mutations are in pLenti-V5 vector (Invitrogen). PINK1-myc is in a pCMBTNT vector (Promega).
(§2) Confocal microscopy of fixed samples, scoring of Parkin recruitment and Parkininduced mitophagy, and live cell imaging were performed as described previously (Narendra (2008) J Cell Biol 183: 795-803). Experiments in Mfn1/2 null cells were performed as described previously with minor modifications. […]

[2] = tested on: M17 human neuroblastoma cells; experiment: Parkin-induced mitophagy in M17 cells; format: cell-based; settings: control shRNA (Parkin line) or PINK1 shRNA, 10 μM CCCP, 24 hours
Excerpt: as §1, §2

COXICA65 cybrid cells [3] = experiment: COXI immunostaining of cybrid cells; format: cell-based, human; settings: Parkin-enriched cybrid cells, 67 days without selection, cells without detectable YFP-Parkin
Description: Cells for fluorescence microscopy were transfected with Fugene 6 (Roche). Cells were fixed with 4% paraformaldehyde (EMS) in PBS, treated with 0.15% of TritonX-100 and blocked with 10% BSA. Cells were incubated with rabbit anti-Tom20 (1:1000) (Santa Cruz), mouse anti-FLAG (Invitrogen) or mouse anti-COXI (Invitrogen) for 2 hs, washed with 10% BSA for 3 times, incubated with AlexaFluor Goat anti-rabbit or anti-mouse IgG (1:500)(Invitrogen) for 1 h and washed with PBS for 10 minutes 2 times. The samples were stored in PBS and imaged on a Zeiss LSM510 microscope (63×/1.4 Oil DIC Plan Apo objective, 40×/1.3 Oil Plan Neo-Fluar objective).

COXICA65 cybrid cells [4] = experiment: PCR-RFLP of wild-type and mutant mtDNA; format: cell-based, human
Excerpt: The forward primer, [NT], and the reversed primer, [NT], were used for COXICA65 cybrid.

Row | Molecule | cells with mitochondrial YFP-Parkin [1] [%] | cells with complete loss of mitochondria [2] [%] | COXI completely negative cells (COXICA65 cybrid cells [3]) [%] | COXI positive cells (COXICA65 cybrid cells [3]) | wild-type and mutant mtDNA bands (COXICA65 cybrid cells [4]; COXICA65 cybrid, YFP-Parkin for 45 days) | mutant mtDNA band at 63 bp (COXICA65 cybrid cells [4]; COXICA65 cybrid, YFP-Parkin for sixty days) | wild-type mtDNA percentage after reversion (COXICA65 cybrid cells [4]; cells enriched to 73.7% wild-type, cultured without FACS selection) [%] | wild-type relative to mutant mtDNA (COXICA65 cybrid cells [4]; cells enriched to >90% wild-type, further 67 days without FACS selection) | percent of wild-type mtDNA (32P labeling) (COXICA65 cybrid cells [4]; first experiment, 180 days) [%] | percent of wild-type mtDNA (32P labeling) (COXICA65 cybrid cells [4]; first experiment, after 200 days) [%] | percent of wild-type mtDNA (32P labeling) (COXICA65 cybrid cells [4]; second experiment, after 200 days) [%]
1 | N#CC(C#N)=NNc1cccc(Cl)c1 [CCCP, carbonyl cyanide m-chlorophenylhydrazone] | 67.3±3.1 | – | – | – | – | – | – | – | – | – | –
2 | YFP-Parkin: YFP-tagged Parkin E3 ligase expressed from a transfected vector (protein, UniProt O60260 1-465, looked up, YFP fusion, YFP-tagged Parkin E3 ligase expressed from a transfected vector) E3 ubiquitin-protein ligase …: MIVFVRFNSSHGFPVEVDSDTSIFQLKEVVAKRQGVPADQLRVIFAGKELRNDWTVQNCDLDQQSIVHIVQRPWRKGQEMNATGGDDPRNAAGGCEREPQSLTRVDLSSSVLPGDSVGLAVILHTDSRKDSPPAGSPAGRSIYNSFYVYCKGPCQRVQPGKLRVQCSTCRQATLTLTQGPSCWDDVLIPNRMSGECQSPHCPGTSAEFFFKCGAHPTSDKETSVALHLIATNSRNITCITCTDVRSPVLVFQCNSRHVICLDCFHLYCVTRLNDRQFVHDPQLGYSLPCVAGCPNSLIKELHHFRILGEEQYNRYQQYGAEECVLQMGGVLCPRPGCGAGLLPEPDQRKVTCEGGNGLGCGFAFCRECKEAYHEGECSAVFEASGTTTQAYRVDERAAEQARWEAASKETIKKTTKPCPRCHVPVEKNGGCMHMKCPQPQCRLEWCWNCGCEWNRVCMGDHWFDV | – | 27.1±8.6 | 27 | Approximately 73% | increase in wild-type DNA and a decrease in mutant DNA | only a very minor band of mutant mtDNA | ~20 | more than 50% | 40.3 | 73.7 | 90.3
